Measured values taken from the supplement of paper PMC7877785.
± gives the uncertainty stated by the source.

Assay: self-splicing fitness, log relative to wild type (ln ratio); higher = more splicing; Tetrahymena group I intron in knt gene, E. coli kanamycin selection, DiMSum; sequences stand for … in CUCUCU…GGAGGGAAAAGUUAUCAGGCAUGCACCUGGUAGCUAGUCUUUAAACCAAUAGAUUGCAUCGGUUUAAAAGGCAAGACCGUCAAAUUGCGGGAAAGGGGUCAACAGCCGUUCAGUACCAAGUCUCAGGGGAAACUUUGAGAUGGCCUUGCAAAGGGUAUGGUAAUAAGCUGACGGACAUGGUCCUAACCACGCAGCCAAGUCCUAAGUCAACAGAUCUUCUGUUGAUAUGGAUGCAGUUCACAGACUAAAUGUCGGUCGGGGAAGAUGUAUUCUUCUCAUAAGAUAUAGUCGGACCUCUCCUUAAUGGGAGCUAGCGGAUGAAGUGAUGCAACACUGGAGCCGCUGGGAACUAAUUUGUAUGCGAAAGUAUAUUGAUUAGUUUUGGAGUACUCGUGGUCG
In short: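 Six replicate transformations of E. coli BL21(DE3) with a pET-22b(+) library were grown overnight at 37°C or 30°C. The library randomised all eight P1ex-region intron nucleotides, the intron lying in the knt kanamycin-resistance gene, and plates were LB agar with or without 25 μg/mL kanamycin plus 100 μg/mL carbenicillin, 50 μM IPTG and 0.2% rhamnose. Pooled colonies were amplicon-sequenced on an Illumina HiSeq 2500, and fitness is the DiMSum error-weighted combination of wild-type-normalised replicate fold changes, kanamycin versus none.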

Row | Sequence | self-splicing fitness (ln) (30 °C) | self-splicing fitness (ln) (37 °C)
1 | CGAGAGCAAUAUUACGUGCG | -3.43 ± 0.29 | -1.8 ± 0.2
2 | UAGUAGCAAUAUUACGACGG | -1.21 ± 0.16 | -0.306 ± 0.21
3 | AAUCAGCAAUAUUACGGACU | -0.329 ± 0.1 | -0.697 ± 0.099
4 | AUGUAGCAAUAUUACGGACC | -1.05 ± 0.2 | -0.411 ± 0.21
5 | UGUCAGCAAUAUUACGCCAU | -1.79 ± 0.18 | -1.98 ± 0.16
6 | UAAAAGCAAUAUUACGAAUC | -4.16 ± 0.42 | -2.13 ± 0.21
7 | CCGUAGCAAUAUUACGGGUG | -3.59 ± 0.21 | -2.11 ± 0.16
8 | UCGUAGCAAUAUUACGUCGC |  | -1.37 ± 0.41
9 | UUGAAGCAAUAUUACGCCAA | -0.371 ± 0.094 | -0.324 ± 0.11
10 | CCUCAGCAAUAUUACGGCCU | -4.16 ± 0.39 | -1.59 ± 0.29
11 | GUGAAGCAAUAUUACGACGA | 0.184 ± 0.15 | 0.158 ± 0.22
12 | GUACAGCAAUAUUACGGUGG | -2.22 ± 0.1 | -1.63 ± 0.11
13 | AUCCAGCAAUAUUACGCCAG | -0.923 ± 0.44 | -2.6 ± 0.48
14 | UUGGAGCAAUAUUACGGCGA | -1.32 ± 0.48 | 
15 | GUGGAGCAAUAUUACGCAUG | -3.81 ± 0.21 | -1.8 ± 0.15
16 | AGGGAGCAAUAUUACGGUUU | -3.83 ± 0.24 | -2.39 ± 0.26
17 | AGCGAGCAAUAUUACGCAGG | -2.43 ± 0.24 | 
18 | ACCGAGCAAUAUUACGCAGG | -4.2 ± 0.47 | -2.65 ± 0.41
19 | CUAUAGCAAUAUUACGUGGG | -3.25 ± 0.19 | -2.16 ± 0.15
20 | GCUAAGCAAUAUUACGUUGA | -1.97 ± 0.14 | -0.945 ± 0.14
21 | CUGCAGCAAUAUUACGUAUG | -1.27 ± 0.091 | -1.19 ± 0.12
22 | UGAGAGCAAUAUUACGGUUU | -2.16 ± 0.4 | 
23 | CAGUAGCAAUAUUACGGGAC | -4.57 ± 0.28 | -3.56 ± 0.2
24 | AUUGAGCAAUAUUACGGUGA | -2.89 ± 0.28 | -1.48 ± 0.22
25 | GGUGAGCAAUAUUACGAGGC |  | -0.336 ± 0.33

Row | Sequence | self-splicing fitness (ln) (30 °C) | self-splicing fitness (ln) (37 °C)
26 | AAUAAGCAAUAUUACGCCCU | -0.352 ± 0.12 | 0.525 ± 0.15
27 | AAAAAGCAAUAUUACGGGCA | -0.543 ± 0.081 | -0.103 ± 0.088
28 | CAUUAGCAAUAUUACGCAAA |  | -2.25 ± 0.32
29 | UUCCAGCAAUAUUACGGGUC | -2.91 ± 0.17 | -2.12 ± 0.25
30 | UUUAAGCAAUAUUACGACCA | -0.979 ± 0.27 | -0.376 ± 0.24
31 | UAGAAGCAAUAUUACGCCGG | -0.817 ± 0.12 | -0.196 ± 0.18
32 | CUAUAGCAAUAUUACGGGGG | -2.16 ± 0.23 | -3.09 ± 0.43
33 | CUCUAGCAAUAUUACGCUUG | -3.57 ± 0.24 | -3.45 ± 0.42
34 | UCUAAGCAAUAUUACGCCGG | -1.15 ± 0.13 | -0.186 ± 0.15
35 | ACGCAGCAAUAUUACGCUAC | -1.93 ± 0.25 | -2.59 ± 0.45
36 | CGAUAGCAAUAUUACGAAUC | -3.74 ± 0.22 | -3.08 ± 0.28
37 | UUUUAGCAAUAUUACGAUAA | -0.659 ± 0.14 | 0.144 ± 0.15
38 | GCUAAGCAAUAUUACGGGUA | -1.32 ± 0.097 | 0.109 ± 0.09
39 | CAAAAGCAAUAUUACGACGU | -0.652 ± 0.066 | 0.0132 ± 0.08
40 | GGGUAGCAAUAUUACGACUG | 0.0705 ± 0.13 | 0.222 ± 0.18
41 | GGCAAGCAAUAUUACGAGAC | -0.681 ± 0.14 | -1.2 ± 0.23
42 | AGCAAGCAAUAUUACGGUUA | -0.707 ± 0.08 | 0.127 ± 0.08
43 | AUGUAGCAAUAUUACGCGUG | -1.44 ± 0.12 | -0.836 ± 0.12
44 | CUCAAGCAAUAUUACGCUGA | -3.13 ± 0.18 | -2.41 ± 0.2
45 | CAGAAGCAAUAUUACGUCUA | -0.102 ± 0.07 | 0.782 ± 0.11
46 | UGGCAGCAAUAUUACGUGAU | -1.46 ± 0.13 | -1.29 ± 0.17
47 | AUUUAGCAAUAUUACGUAGC | -3 ± 0.23 | -1.64 ± 0.25
48 | UCAGAGCAAUAUUACGGGAA |  | -2.4 ± 0.2
49 | AUUGAGCAAUAUUACGGCAA | -1.58 ± 0.14 | -0.831 ± 0.13
50 | GAUGAGCAAUAUUACGAUAU | -3.81 ± 0.21 | -2.58 ± 0.24

Row | Sequence | self-splicing fitness (ln) (30 °C) | self-splicing fitness (ln) (37 °C)
51 | UCCCAGCAAUAUUACGAGAA | -1.87 ± 0.18 | -0.452 ± 0.13
52 | UCCUAGCAAUAUUACGUUCG | -1.03 ± 0.16 | -2.28 ± 0.28
53 | AACCAGCAAUAUUACGAGGG | -3.27 ± 0.11 | -2.1 ± 0.11
54 | AAGUAGCAAUAUUACGAUCA | -0.93 ± 0.11 | -0.174 ± 0.11
55 | CAGGAGCAAUAUUACGCGAG | -2.59 ± 0.23 | -1.59 ± 0.16
56 | UUCCAGCAAUAUUACGACAC | -3.32 ± 0.19 | -2.18 ± 0.19
57 | AGGAAGCAAUAUUACGAUUU | -0.378 ± 0.078 | 0.0421 ± 0.11
58 | UACGAGCAAUAUUACGAAUG | -2.56 ± 0.12 | -1.68 ± 0.15
59 | ACUUAGCAAUAUUACGGAGG | -2.19 ± 0.13 | -1.48 ± 0.16
60 | CCAGAGCAAUAUUACGAGAU | -4.57 ± 0.2 | -3.15 ± 0.16
61 | CGAUAGCAAUAUUACGCUAA |  | -0.607 ± 0.26
62 | UCACAGCAAUAUUACGGCUA | -1.64 ± 0.095 | -0.219 ± 0.077
63 | UGCAAGCAAUAUUACGUUAA | -2.27 ± 0.13 | -0.494 ± 0.1
64 | ACGGAGCAAUAUUACGGCAG |  | -1.07 ± 0.44
65 | ACGCAGCAAUAUUACGAGGG | -3.71 ± 0.18 | -2.77 ± 0.21
66 | AAAAAGCAAUAUUACGCUUG | -1.69 ± 0.087 | -0.744 ± 0.1
67 | CCAAAGCAAUAUUACGAUGG | -4.15 ± 0.22 | -2.29 ± 0.22
68 | AGAAAGCAAUAUUACGAGAU | -3.45 ± 0.24 | -1.99 ± 0.2
69 | UCCUAGCAAUAUUACGGGGG | -3.69 ± 0.18 | -2.59 ± 0.27
70 | ACAAAGCAAUAUUACGUGGG | -3.35 ± 0.13 | -2.47 ± 0.14
71 | CAGUAGCAAUAUUACGUCCU | -3.2 ± 0.18 | -1.43 ± 0.14
72 | ACAAAGCAAUAUUACGAUGU | -3.56 ± 0.11 | -2.43 ± 0.12
73 | GUCAAGCAAUAUUACGUCGC | -3.74 ± 0.21 | -2.13 ± 0.19
74 | GUUGAGCAAUAUUACGAGCA | -2.68 ± 0.28 | -1.71 ± 0.32
75 | GGCGAGCAAUAUUACGGGAA | -2.55 ± 0.3 | -1.74 ± 0.43

Row | Sequence | self-splicing fitness (ln) (30 °C) | self-splicing fitness (ln) (37 °C)
76 | AAUGAGCAAUAUUACGAAAU | -2.14 ± 0.28 | -1.36 ± 0.34
77 | ACGAAGCAAUAUUACGUUUC | -2.31 ± 0.11 | -2.18 ± 0.17
78 | GACUAGCAAUAUUACGCCGA | -0.898 ± 0.21 | -0.421 ± 0.2
79 | CACGAGCAAUAUUACGUCAA | -2.34 ± 0.17 | -2.13 ± 0.23
80 | GCAAAGCAAUAUUACGUGAA | -0.989 ± 0.099 | -0.0746 ± 0.12
81 | GCCUAGCAAUAUUACGGGUA | -0.787 ± 0.072 | 0.611 ± 0.067
82 | AAAUAGCAAUAUUACGUUGA | -3.3 ± 0.41 | -0.771 ± 0.16
83 | GUCGAGCAAUAUUACGCCAG |  | -2 ± 0.43
84 | UGGUAGCAAUAUUACGCCGA | -1.43 ± 0.45 | -0.492 ± 0.32
85 | AAGCAGCAAUAUUACGGGCC | -1.76 ± 0.15 | -1.53 ± 0.15
86 | AGACAGCAAUAUUACGGGAA | -2.68 ± 0.18 | -1.38 ± 0.14
87 | CUUUAGCAAUAUUACGGCUC |  | -2.16 ± 0.46
88 | CACUAGCAAUAUUACGUUAG | -3.34 ± 0.14 | -2.92 ± 0.17
89 | CAACAGCAAUAUUACGAGUA | -1.85 ± 0.1 | -1.04 ± 0.082
90 | GACUAGCAAUAUUACGCACA | -0.58 ± 0.13 | 0.00566 ± 0.14
91 | GGUGAGCAAUAUUACGCUUC |  | -2.51 ± 0.39
92 | CGGUAGCAAUAUUACGAUCC | -1.23 ± 0.22 | -1.56 ± 0.34
93 | UAGAAGCAAUAUUACGUGCC | -2.13 ± 0.22 | -0.962 ± 0.19
94 | GUAUAGCAAUAUUACGUGGG | -3.28 ± 0.16 | -1.88 ± 0.14
95 | UUAUAGCAAUAUUACGCUAC |  | -1.33 ± 0.45
96 | UAGUAGCAAUAUUACGACCG | -0.133 ± 0.16 | 0.109 ± 0.16
97 | UUUUAGCAAUAUUACGGCAU | -2.8 ± 0.41 | -0.972 ± 0.29
98 | AGGCAGCAAUAUUACGCCCG | -1.26 ± 0.12 | -0.431 ± 0.2
99 | GGAUAGCAAUAUUACGCCUU | -0.526 ± 0.11 | 0.31 ± 0.1
